{
  "source": "paper PMC10099716",
  "about": "“A De Novo Sequence Variant in Barrier-to-Autointegration Factor Is Associated with Dominant Motor Neuronopathy”",
  "molecules": {"B1": {"name": "22-nt dsDNA (dsDNA)", "DNA 1": "CTAGGGTTAGGGTTAGGGTTAG", "DNA 2": "CTAACCCTAACCCTAACCCTAG"}},
  "key": {"[1]": {"target": "Barrier-to-autointegration factor Gly16Arg variant (BAF Gly16Arg), all cysteines replaced with alanines (human) (UniProt O75531)", "assay": "SEC; gel filtration of purified, refolded BAF on a Superdex 200 pg HiLoad 16/600 column; elution profiles of WT and Gly16Arg compared"}, "[2]": {"target": "Barrier-to-autointegration factor Gly16Arg variant (BAF Gly16Arg), all cysteines replaced with alanines (human) (UniProt O75531)", "assay": "ITC; VP-ITC; 10-20 µM monomeric BAF (WT or Gly16Arg) in the cell, 100 µM lamin A/C IgFold domain in the syringe; 50 mM Hepes pH 7.4, 150 mM NaCl; 288 K; duplicate, mean values; stoichiometry set to 0.5 (one IgFold domain for each BAF dimer assumed)"}, "[3]": {"target": "Barrier-to-autointegration factor wild type (BAF WT), all cysteines replaced with alanines (human) (UniProt O75531)", "assay": "ITC; VP-ITC; 10-20 µM monomeric BAF (WT or Gly16Arg) in the cell, 100 µM lamin A/C IgFold domain in the syringe; 50 mM Hepes pH 7.4, 150 mM NaCl; 288 K; duplicate, mean values; stoichiometry set to 0.5 (one IgFold domain for each BAF dimer assumed)"}, "[4]": {"target": "T1, BAF Gly16Arg (Cys-to-Ala background) (Homo sapiens, UniProt O75531 1-89, G16R;C67A;C77A;C80A;C85A)", "T1 sequence": "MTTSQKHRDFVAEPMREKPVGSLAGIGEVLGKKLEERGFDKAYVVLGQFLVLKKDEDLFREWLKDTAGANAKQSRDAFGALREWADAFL", "assay": "ITC; unphosphorylated; 288 K; mean of 2; ITC: 50 mM Hepes pH 7.4, 150 mM NaCl, 288 K; 10-20 uM BAF monomer in cell, 31-33 uM dsDNA in syringe", "settings": "protein: recombinant; tags: His8-TEV, cleaved; chain copies: 2"}, "[5]": {"target": "T2, BAF WT (Cys-to-Ala background) (Homo sapiens, UniProt O75531 1-89, C67A;C77A;C80A;C85A)", "T2 sequence": "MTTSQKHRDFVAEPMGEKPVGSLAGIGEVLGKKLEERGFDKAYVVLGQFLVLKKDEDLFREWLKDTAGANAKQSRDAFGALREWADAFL", "assay": "ITC; unphosphorylated; 288 K; mean of 2; ITC: 50 mM Hepes pH 7.4, 150 mM NaCl, 288 K; 10-20 uM BAF monomer in cell, 31-33 uM dsDNA in syringe", "settings": "protein: recombinant; tags: His8-TEV, cleaved; chain copies: 2"}},
  "data": [
    {"molecule": "Barrier-to-autointegration factor Gly16Arg variant (BAF Gly16Arg), all cysteines replaced with alanines (from UniProt O75531 1-89) (natural protein)", "values": [
      {"measurement": "stoichiometry N", "setting": "[1]", "result": 2}
    ]},
    {"molecule": "lamin A/C IgFold domain (human lamin A/C residues 411 to 566) (from UniProt P02545 411-566) (domain or fragment)", "values": [
      {"measurement": "Kd", "setting": "[2]", "result": 9, "unit": "µM"},
      {"measurement": "Kd", "setting": "[3]", "result": 2700, "unit": "nM"}
    ]},
    {"molecule": "B1", "values": [
      {"measurement": "Kd", "setting": "[4]", "result": "16.3 ± 5.7", "unit": "nM"},
      {"measurement": "Kd", "setting": "[5]", "result": "117 ± 58", "unit": "nM"}
    ]}
  ]
}
